Kd data for one molecule are collected here from patent US20210054084A1 (published 2021).

This assay has as its target T1, recombinant human CD25 his tagged (UniProt P01589 22-213).
T1 chain: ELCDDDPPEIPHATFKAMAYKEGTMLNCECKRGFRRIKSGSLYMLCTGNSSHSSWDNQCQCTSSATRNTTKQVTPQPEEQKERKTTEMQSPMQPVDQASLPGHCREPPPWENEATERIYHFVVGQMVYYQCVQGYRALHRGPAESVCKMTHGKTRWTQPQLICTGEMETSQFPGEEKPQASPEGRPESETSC
Nature of the assay: BLI (Octet).

B1: Antibody 1 as human IgG1 expressed in mammalian cells (antibody, V domains shown)
VH: EVQLVESGGGLIQPGGSLRLSCAASGFTLDSYGVSWVRQAPGKGLEWVGVTSSGGSAYYADSVKGRFTISRDNSKNTLYLQMNSLRAEDTAVYYCARDRYVYTGGYLYHYGMDLWGQGTLVTVSS
VL: DIQMTQSPSSLSASVGDRVTITCRASQSISDYLAWYQQKPGKVPKLLIYAASTLPFGVPSRFSGSGSGTDFTLTISSLQPEDVATYYCQGTYDSSDWYWAFGGGTKVEIK
In the case of B1, the dissociation constant (Kd) is 0.8 nM.
